Data as given in publication PMC3896865.
Like-named read-outs stand apart in the source and are kept apart here.

What was measured:
Test in all cases: ITC
[1] = biological target: T1, EGR1 DB_WT (Zif268 DNA-binding domain) (human, UniProt P18146 331-430)
[2] = biological target: T1, EGR1 DB_WT (Zif268 DNA-binding domain); remark: listed apart in the source
[3] = biological target: T1, EGR1 DB_WT (Zif268 DNA-binding domain); remark: listed apart in the source
[4] = biological target: EGR1 DB_H382E (human, UniProt P18146 331-430, H382E)
[5] = biological target: EGR1 DB_H382K (human, UniProt P18146 331-430, H382K)
[6] = biological target: EGR1 DB_H382A (human, UniProt P18146 331-430, H382A)
[7] = biological target: EGR1 DB_H382R (human, UniProt P18146 331-430, H382R)
[8] = biological target: T1, EGR1 DB_WT (Zif268 DNA-binding domain); remark: listed apart in the source
[9] = biological target: T1, EGR1 DB_WT (Zif268 DNA-binding domain); remark: listed apart in the source
[10] = biological target: T1, EGR1 DB_WT (Zif268 DNA-binding domain); remark: listed apart in the source
[11] = biological target: T1, EGR1 DB_WT (Zif268 DNA-binding domain); remark: listed apart in the source
[12] = biological target: T1, EGR1 DB_WT (Zif268 DNA-binding domain); remark: listed apart in the source
[13] = biological target: T1, EGR1 DB_WT (Zif268 DNA-binding domain); remark: listed apart in the source
[14] = biological target: T1, EGR1 DB_WT (Zif268 DNA-binding domain); remark: listed apart in the source

B1: ZRE duplex (15-mer) (dsDNA)
DNA 1: ATAGCGTGGGCGTTT
DNA 2: AAACGCCCACGCTAT
Q: Which results are given for B1?
A: Kd [1]: 266 nM; Kd [2]: 755 nM; Kd [3]: 1330 nM; Kd [4]: 2300 nM; Kd [5]: 2260 nM; Kd [6]: 1610 nM; Kd [7]: 2040 nM; Kd [8]: 314 nM; Kd [9]: 758 nM; Kd [10]: 1030 nM; Kd [11]: 271 nM; Kd [12]: 345 nM; Kd [13]: 324 nM; Kd [14]: 421 nM
